Assay results published in the Immune Epitope Database (IEDB).
pIC50, pKd: −log10 of the molar value.

How the values were obtained:
[1] = target: HLA-A*24:02; experiment: IEDB peptide-MHC binding, purified MHC/competitive/fluorescence; ≥ and ≤ were set here for values at or beyond the usual limits of such assays
[2] = target: HLA-B*18:01; experiment: IEDB peptide-MHC binding, purified MHC/competitive/radioactivity; filed as Kd, often an IC50 or EC50 that approximates it; ≥ and ≤ were set here for values at or beyond the usual limits of such assays
[3] = target: HLA-B*44:03; experiment: as above
[4] = target: HLA-B*44:02; experiment: as above
[5] = target: HLA-B*40:01; experiment: as above
[6] = target: HLA-B*45:01; experiment: as above
[7] = target: HLA-B*40:02; experiment: as above
[8] = target: HLA-B*48:01; experiment: IEDB peptide-MHC binding, purified MHC/direct/fluorescence; filed as Kd, often an IC50 or EC50 that approximates it; ≥ and ≤ were set here for values at or beyond the usual limits of such assays
[9] = target: HLA-B*08:02; experiment: as above
[10] = target: HLA-A*03:01; experiment: IEDB peptide-MHC binding, purified MHC/competitive/fluorescence; filed as Kd, often an IC50 or EC50 that approximates it; ≥ and ≤ were set here for values at or beyond the usual limits of such assays
[11] = target: HLA-A*11:01; experiment: IEDB peptide-MHC binding, purified MHC/direct/fluorescence; filed as Kd, often an IC50 or EC50 that approximates it; ≥ and ≤ were set here for values at or beyond the usual limits of such assays
[12] = target: HLA-B*18:01; experiment: as above; conditions: source organism: Yersinia pestis
[13] = target: HLA-B*08:01; experiment: as above
[14] = target: HLA-A*03:01; experiment: as above
[15] = target: HLA-B*57:01; experiment: as above; conditions: source organism: Yersinia pestis
[16] = target: HLA-A*01:01; experiment: as above
[17] = target: HLA-B*58:01; experiment: as above
[18] = target: HLA-B*44:02; experiment: as above
[19] = target: HLA-A*31:01; experiment: as above
[20] = target: HLA-B*40:01; experiment: as above
[21] = target: HLA-A*69:01; experiment: as above
[22] = target: HLA-B*27:05; experiment: as above
[23] = target: HLA-B*46:01; experiment: as above
[24] = target: HLA-B*07:02; experiment: as above; conditions: source organism: Influenza A virus (A/tiger/Thailand/CU-T6/04(H5N1))
[25] = target: HLA-A*02:01; experiment: as above; conditions: source organism: Influenza A virus (A/tiger/Thailand/CU-T6/04(H5N1))
[26] = target: HLA-A*26:01; experiment: as above; conditions: source organism: Influenza A virus(A/swine/Shandong/fZC/2003(H9N2))
[27] = target: HLA-A*24:03; experiment: as above; conditions: source organism: Influenza A virus (A/tiger/Thailand/CU-T6/04(H5N1))
[28] = target: HLA-B*15:01; experiment: as above; conditions: source organism: Influenza A virus (A/tiger/Thailand/CU-T6/04(H5N1))
[29] = source organism: SARS coronavirus Tor2
[30] = source organism: Vaccinia virus WR
[31] = source organism: Mammarenavirus guanaritoense
[32] = source organism: Mammarenavirus brazilense
[33] = source organism: Yersinia pestis
[34] = source organism: Yersinia pestis CA88-4125
[35] = source organism: Mammarenavirus lassaense
[36] = source organism: Influenza A virus (A/tiger/Thailand/CU-T6/04(H5N1))

In the case of MYRHILRSQ, the pIC50 ([1]; source organism: Zaire ebolavirus) was 4.25.
For EELFYSYAT, the pKd [2, 29] was 5.98, the pKd [3, 29] was 6.77 and the pKd [4, 29] was 6.56. The pKd [5, 29] was 6.16, the pKd [6, 29] was 8.50 and the pKd [7, 29] was 7.61.
HQDNLDTVI was tested, and the pKd ([8]; source organism: Mycobacterium tuberculosis C) was 5.04.
For TEFACVVAEA, the pKd [2, 29] was 7.22, the pKd [3, 29] was 6.41 and the pKd [4, 29] was 5.84. The pKd [5, 29] was 5.82, the pKd [6, 29] was 8.05 and the pKd [7, 29] was 7.84.
FQWAIQDGI gave a pKd ([8]; source organism: Cryptosporidium parvum Iowa II) of 7.09.
Work on KRSVMLIGI yielded a pIC50 [1, 30] of 5.03.
For RKKLKPRWL, the pKd ([9]; source organism: Dengue virus 2 Thailand/16681/84) was at most 4.70.
In the case of KKKLRPRWL, the pKd ([9]; source organism: dengue virus type 4) was at most 4.70.
PEYFNSVCRL was tested, and the pKd [2, 29] was at most 4.15, the pKd [3, 29] was 5.03 and the pKd [4, 29] was at most 4.49. It also gave a pKd [5, 29] of 5.55, a pKd [6, 29] of at most 4.48 and a pKd [7, 29] of 5.90.
KYVDYMSSL gave a pIC50 ([1]; source organism: West Nile virus) of 6.29.
With RIHGLGFCY the pKd ([10]; source organism: Shigella boydii CDC 3083-94) was 6.22.
RWLGGILPW gave a pIC50 [1, 30] of 7.95.
GEKSRCYSL showed a pKd [2, 31] of at most 4.11, a pKd [3, 31] of 4.92 and a pKd [4, 31] of 5.69. The pKd [5, 31] was 6.31, the pKd [6, 31] was 5.91 and the pKd [7, 31] was 7.83.
GETALALLLL was tested, and the pKd [2, 29] was at most 4.32, the pKd [3, 29] was 6.83 and the pKd [4, 29] was 5.87. The pKd [5, 29] was 7.79, the pKd [6, 29] was 5.72 and the pKd [7, 29] was 7.79.
For KLSSEQLSH, the pKd ([10]; source organism: Giardia lamblia ATCC 50803) was 7.23.
Sequence GDNEIEYGF has a pKd [2, 32] of 5.39, a pKd [3, 32] of 4.77 and a pKd [4, 32] of 5.36. The pKd [5, 32] was 5.02, the pKd [6, 32] was 4.91 and the pKd [7, 32] was 5.89.
For QLKSRAAVL, the pKd [11, 33] was at most 4.70, the pKd [12] was at most 4.70 and the pKd [13, 34] was 7.47. For the same sequence, the pKd [14, 33] was at most 4.70, the pKd [15] was at most 4.70 and the pKd [16, 33] was at most 4.70. It also gave a pKd [17, 33] of at most 4.70, a pKd [9, 34] of 6.02 and a pKd [18, 33] of at most 4.70. It also gave a pKd [19, 33] of at most 4.70, a pKd [20, 33] of at most 4.70 and a pKd [21, 33] of at most 4.70. For the same sequence, the pKd [22, 33] was at most 4.70 and the pKd [23, 33] was at most 4.70.
Sequence KEGIVWVAT has a pKd [2, 29] of at most 4.20, a pKd [3, 29] of 4.91 and a pKd [4, 29] of at most 4.70. It also gave a pKd [5, 29] of 5.20, a pKd [6, 29] of 7.16 and a pKd [7, 29] of 7.53.
Sequence GEPKESTPM has a pKd [2, 35] of at most 4.11, a pKd [3, 35] of at most 4.11 and a pKd [4, 35] of 5.03. For the same sequence, the pKd [5, 35] was 5.93, the pKd [6, 35] was at most 4.11 and the pKd [7, 35] was 6.72.
TYQWIIRNW was tested, and the pKd [24] was at most 4.70, the pKd [11, 36] was at most 4.70 and the pKd [25] was at most 4.70. It also gave a pKd [13, 36] of at most 4.70, a pKd [14, 36] of at most 4.70 and a pKd [16, 36] of at most 4.70. The pKd [26] was at most 4.70, the pKd [17, 36] was at most 5.00 and the pKd ([9]; source organism: Influenza A virus(A/swine/Shandong/fZC/2003(H9N2))) was at most 4.70. For the same sequence, the pKd [18, 36] was at most 4.70, the pKd [27] was 8.60 and the pKd [19, 36] was at most 4.70. It also gave a pKd [20, 36] of at most 4.70, a pKd [21, 36] of at most 4.70 and a pKd [28] of at most 4.70. The pKd [22, 36] was at most 4.70 and the pKd [23, 36] was at most 4.70.
